Source: patent publication US20200339684A1 (published 2020)
One block for each binder: values may come before it.

What was measured:
[1] = target: T1, human CD83 on the cell surface (KM-H2, L428, FDCP1 and BB88 cells transfected with full length human CD83) (human, UniProt Q01151 20-205); experiment: cell-based or functional assay
T1 sequence (looked up): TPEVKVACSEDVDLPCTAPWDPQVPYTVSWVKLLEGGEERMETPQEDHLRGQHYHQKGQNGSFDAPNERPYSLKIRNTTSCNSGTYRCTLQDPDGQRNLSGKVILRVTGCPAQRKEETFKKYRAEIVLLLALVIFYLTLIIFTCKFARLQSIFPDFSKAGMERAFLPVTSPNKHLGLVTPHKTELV

[2] = target: T2, recombinant human CD83 extracellular domain with His tag (hCD83ECD-His) (human, UniProt Q01151 20-144); experiment: BiaCore SPR, Fab over immobilised hCD83ECD
T2 construct: extracellular domain; Expressed in CHO cells and purified by IMAC; also called recombinant human CD83ECD-His; recombinant CD83; not shown: His tag
T2 sequence (looked up): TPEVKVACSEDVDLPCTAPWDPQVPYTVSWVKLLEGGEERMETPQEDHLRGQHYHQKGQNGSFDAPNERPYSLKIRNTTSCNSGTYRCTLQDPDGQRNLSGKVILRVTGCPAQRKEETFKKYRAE
Procedure: (§1) Fab fragments were generated by papain digestion with Pierce Fab MicroFab Preparation Kit, as per the manufacturer's instructions except that the kit-provided Protein A resin was replaced with MAbSelect SuRE resin (Seldon et al., J. Biomol. Tech. 22: 50-2, 2011). Fab were diluted in HBS-EP buffer consisting of 10 mM Hepes, 150 mM Sodium Chloride, 3 mM EDTA, and 0.005% Polysorbate 20 (GE Healthcare). Diluted Fab were assessed for affinity using a BiaCore3000 (GE Healthcare) instrument equipped with a CMS chip coupled with 100 Resonance Units (RU) of hCD83ECD-His protein, using the Kinetic Analysis wizard protocol. Kinetic rates were estimated using BiaEvaluation Software (GE Healthcare) using the inbuilt 1:1 binding model with mass transfer limitations.

[3] = target: T2, recombinant human CD83 extracellular …; experiment: BiaCore SPR, Fab over immobilised hCD83ECD, 1:1 model with mass transfer
Procedure: as §1
(§2) FIG. 7A graphically highlights these improvements of 3C12.C binding relative to 3C12.WT, as higher binding signal intensity (i.e., RU) is achieved using reduced concentrations of the VL shuffled variant during the […] Kₒₙ-dependent Association Phase. Similarly, a slower off-rate is observed for 3C12.C Fab during the Koff-dependent dissociation phase.

[4] = target: T2, recombinant human CD83 extracellular …; experiment: Biacore SPR, Fab
Procedure: as §1, §2

B2: 3C12.Kif IgG (3C12 produced in the presence of kifunensine, low-fucose IgG) (antibody, V domains shown)
VH: EVQLQESGGGVVQPGRSLRLSCAASGFTFSSYAMHWVRQAPGKGLEWVAVISYDGSNKYYADSVKGRFTISRDNSKNTLYLQMNSLRAEDTAMYYCARHYYYGMDVWGQGTTLTVSS
VL: EIVMTQSPSLLSASLGDRVTITCRASQGIKNYFAWYQQRPGKAPKLLIYATSNLQSGVPSRFSGSGSGTEFTLTISSLQPEDFATYYCQQLGAYPLTFGGGTKLELKR
modifications: N-glycan without fucose (high mannose, predominantly GlcNAc2Man9), produced with 2 µg/mL kifunensine
ADCC potency in a chromium release assay, fold against 3C12.WT [1]: > 25 fold

B3: 3C12.WT Fab fragment (Fab, V domains shown)
VH: B2 VH
VL: B2 VL
notes: also called 3C12 Fab; wildtype 3C12 Fab
Kd [2]: 130 nM | koff [2]: 0.12 s⁻¹ | kon [2]: 950000 M⁻¹ s⁻¹ | Kd [3]: 130 nM | koff [3]: 0.12 s⁻¹ | kon [3]: 900000 M⁻¹ s⁻¹

B4: 3C12.C Fab fragment (Fab, V domains shown)
VH: B2 VH
VL: EIVLTQSPSSLSASVGDRVTITCRASQGIRNYLAWYQQKPGKVPKLLIYATSTLQSGVPSRFSGSRSGTEFTLTISSLHPEDFATYYCQQVDRFPYTFGQGTKVELKR
Kd [3]: 6.1 nM | koff [3]: 0.0078 s⁻¹ | kon [3]: 1.3e+06 M⁻¹ s⁻¹

B5: 3C12.D Fab fragment (Fab, V domains shown)
VH: B2 VH
VL: EIQMTQSPSSLSASVGDRVTITCRASQGISSWLAWYQQKPGKAPKLLIYAASSLQSGVPSRFSGSGSGTEFTLTISSLQPDDFATYYCQKLSSYPYTFGGGTKVELKR
Kd [3]: 25 nM | koff [3]: 0.027 s⁻¹ | kon [3]: 1.1e+06 M⁻¹ s⁻¹

B7: 3C12.E Fab fragment (Fab, V domains shown)
VH: B2 VH
VL: EIVLTQSPSSLSASVGDRVTITCRASQGISNYLAWYQQKPGKVPKLLIYAASTLQSGVPSRFSGSGSGTHFTLTISSLQPEDVATYYCQKCNSAPYTFGQGTKVELKR
Kd [3]: 42 nM | koff [3]: 0.05 s⁻¹ | kon [3]: 1.2e+06 M⁻¹ s⁻¹

Second part, the binder after the results:

ADCC potency in a chromium release assay, fold against 3C12.WT [1]: > 25 fold
B1: 3C12.C IgG (affinity matured, VL shuffled variant of 3C12, human IgG1 kappa) (antibody, V domains shown)
VH: B2 VH
VL: B4 VL

fold reduction in on-rate relative to 3C12 wildtype [4]: ~3 fold | Kd [3]: 43 nM | koff [3]: 0.014 s⁻¹ | kon [3]: 320000 M⁻¹ s⁻¹
B6: 3C12.B Fab fragment (Fab, V domains shown)
VH: B2 VH
VL: EVVMTQSPSFLSASIGDRVSITCRTSQGISNHLAWYQQKPGKAPKLLIYAASSLQSGVPSRFSGSGSGTDFTLTISSLQPEDIATYYCQQVNSYPYTFGQGTRLELKR
